Assay results from US20070243194A1 (Biogen, published 2007).
Each block holds one binder with its values, some of them ahead of it.

Target: human IGF-1R on cells (human, UniProt P08069 31-740; P08069 741-1367)
Assay: cell-based or functional assay

human IGF-1R on cells, sequence (P08069 31-740, chain 1 of 2): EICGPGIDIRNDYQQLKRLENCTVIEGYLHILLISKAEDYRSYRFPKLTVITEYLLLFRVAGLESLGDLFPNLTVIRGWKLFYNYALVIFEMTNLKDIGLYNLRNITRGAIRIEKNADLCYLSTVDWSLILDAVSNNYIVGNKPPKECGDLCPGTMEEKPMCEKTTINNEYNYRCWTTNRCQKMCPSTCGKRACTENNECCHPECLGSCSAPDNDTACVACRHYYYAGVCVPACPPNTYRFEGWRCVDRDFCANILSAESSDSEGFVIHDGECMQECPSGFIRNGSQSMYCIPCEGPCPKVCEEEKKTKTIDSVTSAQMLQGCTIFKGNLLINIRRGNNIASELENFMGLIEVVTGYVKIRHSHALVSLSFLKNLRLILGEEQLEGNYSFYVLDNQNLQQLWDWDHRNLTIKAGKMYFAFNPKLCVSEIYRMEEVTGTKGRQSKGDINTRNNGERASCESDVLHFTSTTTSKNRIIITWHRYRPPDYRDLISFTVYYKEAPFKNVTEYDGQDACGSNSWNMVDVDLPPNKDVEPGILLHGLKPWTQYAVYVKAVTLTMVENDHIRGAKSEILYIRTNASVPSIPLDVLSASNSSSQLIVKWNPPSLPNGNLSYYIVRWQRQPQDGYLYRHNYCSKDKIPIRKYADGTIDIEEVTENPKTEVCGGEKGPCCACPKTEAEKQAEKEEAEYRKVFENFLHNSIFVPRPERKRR
human IGF-1R on cells, sequence (P08069 741-1367, chain 2 of 2): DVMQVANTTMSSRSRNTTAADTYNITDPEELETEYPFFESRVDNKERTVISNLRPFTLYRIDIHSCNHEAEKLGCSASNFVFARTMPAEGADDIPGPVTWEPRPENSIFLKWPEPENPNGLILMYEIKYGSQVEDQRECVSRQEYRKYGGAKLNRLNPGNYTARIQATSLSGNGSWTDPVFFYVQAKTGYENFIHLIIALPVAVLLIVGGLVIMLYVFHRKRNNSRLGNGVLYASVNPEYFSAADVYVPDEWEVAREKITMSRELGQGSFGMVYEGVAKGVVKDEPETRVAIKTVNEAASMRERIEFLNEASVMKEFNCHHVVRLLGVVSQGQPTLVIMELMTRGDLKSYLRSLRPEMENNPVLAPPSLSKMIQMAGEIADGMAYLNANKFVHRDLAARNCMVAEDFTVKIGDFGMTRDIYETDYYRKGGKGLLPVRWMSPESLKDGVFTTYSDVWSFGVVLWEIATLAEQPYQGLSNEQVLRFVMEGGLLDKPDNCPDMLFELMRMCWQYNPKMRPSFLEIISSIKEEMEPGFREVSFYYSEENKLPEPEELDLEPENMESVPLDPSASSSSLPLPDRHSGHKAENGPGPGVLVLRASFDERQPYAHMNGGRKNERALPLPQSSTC

inhibition of IGF-1 and IGF-2 mediated IGF-1R receptor phosphorylation, EC50: < 1 nM
B1: M13-C06.G4.P.agly (antibody, human IgG4 S228P, kappa, V domains shown)
VH: EVQLLESGGGLVQPGGSLRLSCAASGFTFSIYRMQWVRQAPGKGLEWVSGISPSGGTTWYADSVKGRFTISRDNSKNTLYLQMNSLRAEDTAVYYCARWSGGSGYAFDIWGQGTMVTVSS
VL: DIQMTQSPLSLSASVGDRVTITCQASRDIRNYLNWYQQKPGKAPKLLIYDASSLQTGVPSRFGGSGSGTDFSFTIGSLQPEDIATYYCQQFDSLPHTFGQGTKLEIKR

inhibition of IGF-1 and IGF-2 mediated IGF-1R receptor phosphorylation, EC50: < 1 nM
B2: M14-C03.G4.P.agly (antibody, human IgG4 S228P, kappa, V domains shown)
VH: EVQLLESGGGLVQPGGSLRLSCAASGFTFSKYMMSWVRQAPGKGLEWVSYISPSGGLTWYADSVKGRFTISRDNSKNTLYLQMNSLRAEDTAVYYCARDGARGYGMDVWGQGTTVTVSS
VL: DIQMTQSPATLSLSPGERATLSCRASQSVSSYLAWYQQKPGQAPRLLIYDASNRATGIPARFSGSGSGTDFTLTISSLEPEDFAVYYCQQRSNWPPEVTFGPGTKVDIKR

inhibition of IGF-1 and IGF-2 mediated IGF-1R receptor phosphorylation, EC50: < 1 nM
B3: M14-G11.G4.P (antibody, V domains shown)
VH: EVQLLESGGGLVQPGGSLRLSCAASGFTFSNYPMYWVRQAPGKGLEWVSRISSSGGRTVYADSVKGRFTISRDNSKNTLYLQMNSLRAEDTAVYYCARDRWSRSAAEYGLGGYWGQGTLVTVSS
VL: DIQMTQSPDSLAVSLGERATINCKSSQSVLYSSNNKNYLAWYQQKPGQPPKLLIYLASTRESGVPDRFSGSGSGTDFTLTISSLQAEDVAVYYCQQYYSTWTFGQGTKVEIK
